Experimental findings from patent US20200277377A1 (WUXI BIOLOGICS SHANGHAI, published 2020) are described below.

Positions count from the first letter of the chain named.

Assay [1] addresses T1, human CTLA-4 (Example 3 ELISAs, construct not stated) (human, UniProt P16410 36-161).
T1 sequence (looked up): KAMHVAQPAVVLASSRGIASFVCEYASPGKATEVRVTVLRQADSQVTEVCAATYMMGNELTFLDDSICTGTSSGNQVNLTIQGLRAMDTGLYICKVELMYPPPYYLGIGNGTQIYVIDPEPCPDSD
The assay can be described thus: ELISA, antibody titrated on human CTLA-4, OD450. Here is the method:
(§1) The antibodies were tested on CTLA-4-binding ELISA.
(§2) ELISA was used to test binding of anti-human CTLA-4 antibodies to human, murine and cynomolgus monkey CTLA-4 protein. A 96-well plate was coated with human CTLA-4.ECD-6×His (1.0 μg/mL), cynomoguls monkey CTLA-4.ECD-6×His (0.5 μg/mL) or mouse CTLA-4.ECD-6×His (0.5 μg/mL) at 4° C. for 16-20 hours. After 1 hour blocking with 2% BSA in DBPS, testing antibodies, as well as positive and negative control antibodies were added to the plates and incubated at room temperature for 1 hour. The binding of the antibodies to the plates were detected by HRP-conjugated goat anti-human IgG antibody (1:5000 dilution) with 1 hour incubation. The color was developed by dispensing 100 μL of TMB substrate for 8 mins, and then stopped by 100 μL of 2N HCl.

The target of assay [2] is T1, human CTLA-4 (Example 3 ELISAs, …). As to the kind of experiment: competition ELISA: coated human CTLA-4, antibody mixed with biotinylated CD80, bound ligand detected with streptavidin-HRP [A) CD80]. As to the method:
(§3) Both ELISA and FACS were used as the competition assays. In ELISA based competition assay, human CTLA-4 was coated on the plates, and the antibodies mixed with biotinylated ligands were added into the plate. The bound ligands were detected by HRP conjugated streptavidin.

For assay [3], the target named is T2, human CTLA-4.ECD-6×His (human, UniProt P16410 36-161).
T2 construct: extracellular domain; also called WBP316.hCTLA-4.ECD-6×His; hCTLA4-His (WT)
T2 sequence: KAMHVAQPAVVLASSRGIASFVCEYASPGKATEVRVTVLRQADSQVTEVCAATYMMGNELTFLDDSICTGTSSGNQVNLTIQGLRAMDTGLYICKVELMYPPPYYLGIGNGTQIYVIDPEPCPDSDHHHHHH
As to the kind of experiment: SPR, antibody captured on anti-human Fc, CTLA-4 ECD as analyte, 1:1 fit. Here is the method: The binding kinetics of four antibodies were measured using SPR. The antibodies were captured on immobilized goat anti-human Fc, and then human CTLA-4 ECD at different concentration was injected orderly. The sensorgrams for reference channel and buffer channel were subtracted from the test sensorgrams. The data was used to fit in 1:1 binding analysis.
(§4) Biacore T200, Series S Sensor Chip CMS, Amine Coupling Kit, and 10×HBS-EP were purchased from GE Healthcare. […] In immobilization step, the activation buffer was prepared by mixing 400 mM EDC and 100 mM NHS immediately prior to injection. The CM5 sensor chip was activated for 420 s with the activation buffer. 30 μg/mL of goat anti-human IgG Fcγ antibody in 10 mM NaAc (pH 4.5) was then injected to Fc1-Fc4 channels for 200 s at a flow rate of 5 μL/min. The chip was deactivated by 1 M ethanolamine-HCl (GE). Then the antibodies were captured on the chip. Briefly, 4 μg/mL antibodies in running buffer (HBS-EP+) was injected individually to Fc3 channel for 30 s at a flow rate of 10 μL/min. […] Regeneration buffer (10 mM Glycine pH 1.5) was injected at 10 μL/min for 30 s following every dissociation phase.
In general terms: Surface plasmon resonance follows binding to a sensor surface in real time, without labels.

For assay [4], the target named is T3, biotinylated human CTLA-4 (Example 3 FACS competition) (human, UniProt P16410 36-161, limits assumed, biotinylated (sites not given)).
T3 sequence (looked up): T1 sequence (looked up)
The assay can be described thus: competition FACS: antibody mixed with biotinylated human CTLA-4, added to CD86-expressing cells (panel title W316-CHO-K1.hPro1.L2), bound CTLA-4 detected with streptavidin-PE [B]. Here is the method:
as §3
(§5) Then the mixtures of antibody and CTLA-4 were added to the cells and incubated for 1 hour at 4° C. The cells were washed two times with 200 μL FACS buffer (DPBS containing 1% BSA). Streptavidin PE 1 to 333 diluted in FACS buffer was added to the cells and incubated at 4° C. for 1 hour.

Assay [5] addresses T1, human CTLA-4 (Example 3 ELISAs, …). As to the kind of experiment: competition ELISA: coated human CTLA-4, antibody mixed with biotinylated CD86, bound ligand detected with streptavidin-HRP [B) CD86]. As to the method:
as §3
Plates were coated with human CTLA-4.ECD.hFc (0.5 μg/mL) at 4° C. for 16-20 hours. […] After washing three times with PBS containing 0.05% Tween 20, biotinylated anti-His tag antibody was 1:2000 diluted and added. The plates were incubated at room temperature for 1 hour. The bound ligands were detected by HRP conjugated streptavidin (1:20000).

Assay [6] deals with T3, biotinylated human CTLA-4 (Example 3 …). The assay can be described thus: competition FACS: antibody mixed with biotinylated human CTLA-4, added to CD80-expressing cells (panel title W316-CHO-K1.hPro1.L1), bound CTLA-4 detected with streptavidin-PE [A]. As to the method: as §3, §5
Assay [7] concerns the target T4, cynomolgus monkey CTLA-4 ECD-6×His (cynomolgus monkey).
T4 construct: extracellular domain; Bought; also called cynomoguls monkey CTLA-4.ECD-6×His
As to the kind of experiment: SPR, antibody captured on anti-human Fc, CTLA-4.ECD-6×His as analyte, 1:1 fit. As to the method:
as §4
(§6) The binding kinetics of these antibodies were measured using SPR. The antibodies were captured on immobilized anti-human Fc and CTLA-4-ECD at different concentration was injected orderly. The sensorgrams for reference channel and buffer channel were subtracted from the test sensorgrams. The data was used for 1:1 binding analysis on human, monkey and mouse CTLA-4.ECD-6×His.

The target of assay [8] is T2, human CTLA-4.ECD-6×His. Described as above. As to the method:
as §4, §6

Assay [9] concerns the target T5, monkey CTLA-4 (Example 3 ELISA, construct not stated) (cynomolgus monkey, UniProt G7PL88 36-161).
T5 construct: also called cyno CTLA-4
T5 sequence: T1 sequence (looked up) with S14N, I18T, L106M
As to the kind of experiment: ELISA, antibody titrated on cyno CTLA-4, OD450. Here is the method:
as §1, §2
(In an ELISA, binding on a coated surface is turned into a signal by an enzyme label.)

Assay [10] concerns the target T6, murine CTLA-4 (Example 3 ELISA, construct not stated) (mouse, UniProt P09793 36-161, limits assumed).
T6 construct: also called mouse CTLA-4
As to the kind of experiment: ELISA, antibody titrated on mouse CTLA-4, OD450. As to the method: as §1, §2

Assay [11] concerns the target T7, full length human CTLA-4 on cells (human, UniProt P16410 36-223).
T7 construct: whole, on cells; also called CTLA-4-expressing cell line
T7 sequence (looked up): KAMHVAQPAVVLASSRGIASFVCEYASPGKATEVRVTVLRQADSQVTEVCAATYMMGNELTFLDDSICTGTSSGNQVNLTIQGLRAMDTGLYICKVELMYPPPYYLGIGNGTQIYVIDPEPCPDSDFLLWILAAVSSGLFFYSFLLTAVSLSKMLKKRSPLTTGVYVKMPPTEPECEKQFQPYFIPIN
As to the kind of experiment: FACS on CTLA-4-expressing cell line.

B1: W3162-1.145.10 xAb.IgG1 (antibody, V domains shown)
VH: EVQLVESGGGLVQPGRSLKLSCAASDLTFSNYDMAWVRQTPTKGLEWVASISPNGGNTYYRDSVKGRFTVSRDNAKNSLYLQMDSLRSEDTATYYCARHLWFAYWGQGTLVTVSS
VL: DIQMTQSPSSMSASLGDRVTISCQASQDIGSNLIWFQQKPGKSPRPMIYYATHLADGVPSRFSGSRSGSDYSLTISSLESEDVADYHCLQYKQYPRTFGGGTKLELK
notes: Chimeric: rat variable regions fused with constant region of human antibody (label xAb.IgG1)
For orientation: EC50 (read off the curve) means the concentration that produces a half-maximal response. A word on the Kd: it is the constant that tells how readily two partners part at equilibrium. Broadly, the koff is a measure of how fast the partners let go of each other. The term kon denotes the rate constant with which the complex forms. Turning to B1, the “EC50 (read off the curve)” value in assay [1] is roughly 0.01 nM; in assay [9] it was roughly 0.1 nM. For the same molecule, the “IC50 (read off the curve)” value in [2] is roughly 0.3 nM; in assay [4], roughly 0.3 nM; in assay [5], roughly 0.4 nM; in [6], roughly 1 nM. For the same molecule, the values for the Kd in [3], in assay [7] and in assay [8] were 2.08 nM, 0.355 nM and 2.08 nM, respectively. The koff in assay [3] worked out at 0.0165 s⁻¹; in [7], 0.00377 s⁻¹; in [8] it was 0.0165 s⁻¹. Also, the kon was 7.93e+06 M⁻¹ s⁻¹ in [3], 1.06e+07 M⁻¹ s⁻¹ in [7] and 7.93e+06 M⁻¹ s⁻¹ in assay [8]. Also, in assay [10], the binding result is “no binding (tested: about 20 nM)”.

B2: W3162_1.145.10-z7-uAb.IgG1K (antibody, V domains shown)
VH: B1 VH with R16G, K19R, T40A, T42G, N54S, V70I, D84N, S88A, T93V
VL: DIQMTQSPSSLSASVGDRVTITCQASQDIGSNLIWFQQKPGKAPKPMIYYATHLADGVPSRFSGSRSGTDYTLTISSLQPEDFATYYCLQYKQYPRTFGGGTKVEIK
notes: Humanized; label says IgG1K; also called W145
As for B2, in assay [7], the affinity, expressed as Kd, was 0.598 nM; the koff is 0.00271 s⁻¹; the kon was 4.52e+06 M⁻¹ s⁻¹. Also, in assay [8], the affinity, expressed as Kd, was 1.84 nM; the koff came out at 0.0135 s⁻¹; the kon is 7.37e+06 M⁻¹ s⁻¹.

B3: W3162-1.154.8 xAb.IgG1 (antibody, V domains shown)
VH: EVQLQQSGPEAGRPGSSVKISCKASGYTFTNYFMNWVKQSPGQGLEWIGRVDPENGRADYAEKFKKKATLTADTTSNTAYIHLSSLTSEDTATYFCARRAMDNYGFAYWGQGTLVTVSS
VL: EIMLTQSPTIMAASLGEKITITCSANSSLSYMYWFQQKSGASPKLWVHGTSNLASGVPDRFSGSGSGTSYYLTINTMEAEDAATYFCHHWSNTQWTFGGGTKLELK
notes: as for B1
As usually defined, the EC50 is the concentration giving half of the maximal effect. In assay [11], B3 had an EC50 of 1.26 nM. The “EC50 (read off the curve)” value was roughly 0.05 nM in assay [1] and roughly 0.08 nM in [9]. Moreover, the “IC50 (read off the curve)” value in assay [2] is roughly 0.3 nM; in assay [4], roughly 0.08 nM; in assay [5] it was roughly 0.4 nM. Also, the Kd came to 0.068 nM in [3], 0.0872 nM in [7] and 0.068 nM in assay [8]. The koff in assay [3] stood at 0.000125 s⁻¹; in assay [7], 0.000109 s⁻¹; in [8] it was 0.000125 s⁻¹. The kon came to 1.85e+06 M⁻¹ s⁻¹ in assay [3], 1.25e+06 M⁻¹ s⁻¹ in assay [7] and 1.85e+06 M⁻¹ s⁻¹ in [8]. Further, in [10], the binding result is reported as “no binding (tested: about 20 nM)”.

B4: W3162-1.101.2 xAb.IgG1 (antibody, V domains shown)
VH: EEQLVESGGGLVQPGKSLKLSCSASGFTFRSSAMHWIRQPPGKGLDWVAFISSGGDTAYADAVKGRFIVSRDNAENTLFLQLNSLKSEDTAIYYCVRMERIPTWGQGVMVTVSS
VL: DIVLTQSPVLAVSLGQRATISCRASQSVSISSINLIHWYQQRPGQQPKLLIYRTSNLASGIPARFSGSGSGTDFTLSIDPVQADDVADYYCQQSRESPLTFGSGTKLEIK
notes: as for B1
For the molecule B4, the “EC50 (read off the curve)” value in [1] was roughly 0.04 nM. Also, in [3], binding was put at a Kd of 0.1 nM, the koff was found to be 6.97e-05 s⁻¹ and the kon was 695000 M⁻¹ s⁻¹. In assay [4], the “IC50 (read off the curve)” value was roughly 20 nM. Besides, in assay [5], the “IC50 (read off the curve)” value is roughly 0.5 nM. In [9], the “EC50 (read off the curve)” value was roughly 0.1 nM. Further, the binding result in [10] was “no binding (tested: about 20 nM)”.
